Residue numbers refer to the chain shown, from its start.
B1: bispecific molecule comprising SEQ ID NO: 77 and SEQ ID NO: 81 (anti-NGF + Fc IgGB (FcRn long-acting Q to Y, C1q-, CD16-) + anti-TNF ScFv) (bispecific antibody)
light: EIVMTQSPGSLAGSAGESVSINCRASEDIYNALAWYQQKPGERPKLLIYNTDTLHTGVPARFSSSGSGTDFTLTINNLQAEDVGDYFCQHYFGYPRTFGAGTKVELKRNDAQPAVYLFQPSPDQLHTGSASVVCLLNSFYPKDINVKWKVDGVIQDTGIQESVTEQDKDSTYSLSSTLTMSSTEYLSHELYSCEITHKSLPSTLIKSFQRSECQRVD
heavy: not shown
notes: Expressed in mammalian cells, purified on Protein A; also called bispecific anti-canine TNF and anti-canine NGF molecule
B2: KBA v1 (caninized TNFα D2E7 antibody: KBA VL v1 and canine kappa light constant region; caninized variable heavy chain of D2E7 and canine IgG-B constant region) (antibody, V domains shown)
VH: EVQLVESGGDLVKPGGSLRLSCVASGFTFDDYAMHWVRQAPGKGLQWVSAITWNSGHIDYADAVKGRFTISRDNAKNTLYLQMNSLRAEDTAVYYCAKVSYLSTASSLDYWGQGTLVTVSS
VL: DIVMTQTPLSLSASPGEPVSISCRASQGIRNYLAWYLQKPGQSPRLLIYAASTLQSGVPDRFSGSGSGTDFTLRIGRLEAEDAAIYYCQRYNRAPYTFGQGTKVEIKR
notes: Full light and heavy chains without leader; expressed in CHO cells, purified on Protein A; also called KIND-509
B3: KBA v2 (caninized TNFα D2E7 antibody: KBA VL v2 and canine kappa light constant region; caninized variable heavy chain of D2E7 and canine IgG-B constant region) (antibody, V domains shown)
VH: B2 VH
VL: B2 VL with L9P, Y36F, L37R, R45Q, P59S, G76S, E81D, I85V
notes: Full light and heavy chains without leader; expressed in CHO cells, purified on Protein A

Experiments:
canine TNFα [1] = molecular target: T1, canine TNFα (canine, UniProt P51742 77-233, biotinylated (EZ-Link NHS-LC-biotin) in Example 2); test: BLI (biosensor Octet), format not stated
T1 construct: Bought recombinant protein; also called cTNFα; canine TNF-alpha

canine TNFα [2] = molecular target: T1, canine TNFα; test: BLI (ForteBio), biotinylated TNFα on streptavidin tips, antibody in solution, 1:1 model
Experimental: (§1) The binding analysis was performed as follows. Briefly, canine and human TNFα were biotinylated. The free unreacted biotin was removed from biotinylated TNFα by extensive dialysis. Biotinylated TNFα was captured on streptavidin sensor tips. The association of five different concentrations (150, 50, 17, 5.6, and 1.9 nM) of TNFα antibody and TNFα (human and canine, in different tests) was monitored for ninety seconds. Dissociation was monitored for 600 seconds. A buffer only blank curve was subtracted to correct for any drift. The data were fit to a 1:1 binding model using ForteBio™ data analysis software to determine the kon (association rate constant), koff (dissociation rate constant) and the KD (dissociation constant). […] The buffer for dilutions and all binding steps was: 200 mM phosphate, 150 mM NaCl, 0.02% Tween-20, 0.05% sodium azide, and 0.1 mg BSA, pH7.4.

human TNFα = molecular target: T2, human TNFα (human, UniProt P01375 77-233, biotinylated (EZ-Link NHS-LC-biotin) in Example 2); test: as above
T2 construct: Bought recombinant protein
Experimental: as §1

T1 sequence (P51742 77-233 limits assumed): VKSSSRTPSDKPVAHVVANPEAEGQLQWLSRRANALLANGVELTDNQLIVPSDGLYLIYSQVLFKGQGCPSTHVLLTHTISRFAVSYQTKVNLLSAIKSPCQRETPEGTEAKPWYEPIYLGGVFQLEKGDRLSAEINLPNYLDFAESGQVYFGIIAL
T2 sequence (P01375 77-233 limits assumed): as the sequence (P51742 77-233 limits assumed) above, with K2R, E21Q, S30N, T44R, I49V, D53E, F83I, T109A, L138R, N140D counted along it

Binder	Kd (canine TNFα [1])	Kd (canine TNFα [2])	koff (canine TNFα [2])	kon (canine TNFα [2])	Kd (human TNFα)	koff (human TNFα)	kon (human TNFα)
B1	0.838 nM	–	–	–	–	–	–
B2	–	0.0988 nM	8.28e-05 s⁻¹	839000 M⁻¹ s⁻¹	0.0207 nM	1.53e-05 s⁻¹	741000 M⁻¹ s⁻¹
B3	–	0.303 nM	0.000216 s⁻¹	713000 M⁻¹ s⁻¹	0.269 nM	0.00015 s⁻¹	575000 M⁻¹ s⁻¹

Reference: patent US20240101715A1 (KINDRED BIOSCIENCES, published 2024)
